PMC3770614

Biological target: nucleosomes decorated with both H3KC4me3 and H3K9ac or H3K14ac
Assay: pull-down; 130 pmol recombinant nucleosome (biotinylated 601 Widom DNA, weak TATA) on magnetic streptavidin beads, 500 µg HeLa nuclear extract, 2–3 hours at 4°C; 20 mM HEPES pH 7.5, 150 mM NaCl, 0.2 mM EDTA, 20% glycerol, 0.1% NP-40, 1 mM DTT; no competitor DNA; immunoblot of eluted proteins

fold binding compared to H3KC4me3 alone: 1.2 to 1.4 fold
Substance: TFIID complex (from UniProt P21675 1-1893; Q6P1X5 1-1199; Q5VWG9 1-929; O00268 1-1085; Q15542 1-800; P49848 1-677; Q15545 1-349; Q7Z7C8 1-310; Q16594 1-264; Q12962 1-218; Q15544 1-211; Q16514 1-161; Q15543 1-124; P20226 1-339)
